Laboratory results as given in patent EP4792821A2 (Beijing Youcare Kechuang Pharmaceutical Technology Co., Ltd., dated 2026).
*1 amine or outer side, *2 acyl side, *3 side chain or, on linkers, in order; H or OH if unused. Side-chain parts run from the residue outwards. The star is where a group is joined. Succinyl(4-O-cholesteryl) = CC(C)CCC[C@@H](C)[C@H]1CC[C@H]2[C@@H]3CC=C4C[C@@H](OC(=O)CCC(=O)*)CC[C@]4(C)[C@H]3CC[C@]12C; Suc = O=C(CCC(=O)[*:2])[*:1]

B1: Compound 17 (peptide)
peptide: Ac-DEFDKKIEEVNKKIEESLKKIEESDKKLEAAAKK(Succinyl(4-O-cholesteryl))-NH2
B2: Compound 22 (peptide)
peptide: Ac-DEFDKKKIEEVNKKIEESLKKIEESDKKLEEVEAAAKK([Suc-Succinyl(4-O-cholesteryl)])-NH2
B3: Compound 25 (peptide)
peptide: Ac-YDELVFDASQVNEKINQSLEKIRKSDELLHNVGSGSGK([Suc-Succinyl(4-O-cholesteryl)])-NH2
B4: Compound 42 (peptide)
peptide: Ac-FDASIEEVNRRIEESLRRIEESDRRLEEVNAEAAAKK([Suc-Succinyl(4-O-cholesteryl)])-NH2
B5: Compound 28 (peptide)
peptide: Ac-DEFDASISQVNEKINQSLEEIRKSDELLHNEAAAKK([Suc-Succinyl(4-O-cholesteryl)])-NH2
B6: Compound 21 (peptide)
peptide: Ac-DEFDKKIEEVNKKIEESLKKIEESDKKLEEVEAAAKK([Suc-Succinyl(4-O-cholesteryl)])-NH2
B7: Compound 38 (peptide)
peptide: Ac-WDEFDASISQVNEKINQSLEEIRKSDELLHNVNALEAAAKK([Suc-Succinyl(4-O-cholesteryl)])-NH2
B8: Compound 26 (peptide)
peptide: Ac-FDEEISQVNEKINQSLAFIRKSDELLHNVNAGKSTTEAAAKK([Suc-Succinyl(4-O-cholesteryl)])-NH2
B9: Compound 16 (peptide)
peptide: Ac-SDEFDKKIEEVNKKIEESLKKIEESDKKLEAAAKK([Suc-Succinyl(4-O-cholesteryl)])-NH2
B10: Compound 27 (peptide)
peptide: Ac-WDEFDASISQVNEKINQSLEEIRKSDELLHNVNAGLGSGSGK([Suc-Succinyl(4-O-cholesteryl)])-NH2
B11: Compound 20 (peptide)
peptide: Ac-SDEFDKKIEEVNKKIEESLKKIEESDKKLGSGSGK([Suc-Succinyl(4-O-cholesteryl)])-NH2
B12: Compound 30 (peptide)
peptide: Ac-YDELVFDASQVNEKINQSLEKIRKSDELLHNVEAAAKK([Suc-Succinyl(4-O-cholesteryl)])-NH2
B13: Compound 43 (peptide)
peptide: Ac-WDEFDASIEEVNRRIEESLRRIEESDRRLEEVEAAAKK([Suc-Succinyl(4-O-cholesteryl)])-NH2
B14: Compound 40 (peptide)
peptide: Ac-WDEFDKKIEEVNKKIEESLKKIEESDKKLEEVNAEAAAKK([Suc-Succinyl(4-O-cholesteryl)])-NH2
B15: Compound 41 (peptide)
peptide: Ac-WDEFDKKIEEVNKKIEESLKKIEESDKKLEEVNEAAAKK([Suc-Succinyl(4-O-cholesteryl)])-NH2
B16: Compound 29 (peptide)
peptide: Ac-LVKKIDEFDASISQVNEKINQSLEEIRKSDELLHNVGSGSGK([Suc-Succinyl(4-O-cholesteryl)])-NH2

Columns and labels:
Experiment in all cases: cell-based or functional assay
[1] = target: F protein of RSV A long virus strain (Respiratory Syncytial Virus (RSV) A …, UniProt P12568 26-574)
F protein of RSV A long virus strain, sequence (P12568 26-574): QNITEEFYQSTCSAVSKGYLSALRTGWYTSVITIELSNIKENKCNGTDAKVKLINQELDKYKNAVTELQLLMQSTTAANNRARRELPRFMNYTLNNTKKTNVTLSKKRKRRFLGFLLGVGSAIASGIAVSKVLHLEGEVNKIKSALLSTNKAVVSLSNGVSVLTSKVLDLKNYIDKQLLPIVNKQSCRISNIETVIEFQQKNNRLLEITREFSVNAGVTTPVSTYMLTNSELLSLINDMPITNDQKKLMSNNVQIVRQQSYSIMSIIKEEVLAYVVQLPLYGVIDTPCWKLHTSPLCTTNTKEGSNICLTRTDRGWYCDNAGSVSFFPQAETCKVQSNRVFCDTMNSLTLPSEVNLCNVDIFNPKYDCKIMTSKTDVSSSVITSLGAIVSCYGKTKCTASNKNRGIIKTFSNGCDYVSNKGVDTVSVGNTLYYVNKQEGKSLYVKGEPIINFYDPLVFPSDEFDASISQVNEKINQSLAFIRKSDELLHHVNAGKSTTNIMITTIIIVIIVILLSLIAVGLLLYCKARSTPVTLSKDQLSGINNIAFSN

[2] = target: F protein of hMPV virus strain A2 (human metapneumovirus (hMPV) A2)
[3] = target: F protein of hMPV virus strain B1 (human metapneumovirus (hMPV) B1)
[4] = target: F protein of hPIV Type 3 (hPIV3 C243) (human Parainfluenza Virus type 3 (hPIV3 …))

| Binder | IC50/nM, plaque reduction, RSV A long on HEp-2 cells (Table 2, Cell fusion inhibition activity) [1] | EC50 (nM), plaque reduction, hMPV A2 on Vero cells [2] | EC50 (nM), plaque reduction, hMPV B1 on Vero cells [3] | EC50 (nM), plaque reduction, hPIV3 C243 on LLC-MK2 cells [4] |
| --- | --- | --- | --- | --- |
| B1 | 17.6 nM | 8.78 nM | 3.61 nM | 52.6 nM |
| B2 | 11.3 nM | 88.4 nM | 18 nM | 65.4 nM |
| B3 | 28.7 nM | 86.4 nM | 38.1 nM | 29.4 nM |
| B4 | 11.8 nM | 26.1 nM | 10.1 nM | 18.9 nM |
| B5 | 12.4 nM | 58.6 nM | 13.8 nM | 54.4 nM |
| B6 | 14.6 nM | 11.2 nM | 4.92 nM | 21.3 nM |
| B7 | 14.6 nM | 128 nM | 16.6 nM | 26.4 nM |
| B8 | 12.8 nM | 103 nM | 2.85 nM | 1.35 nM |
| B9 | 10.3 nM | 7.35 nM | 4.5 nM | 59 nM |
| B10 | 25.7 nM | 78.3 nM | 10.5 nM | 27.2 nM |
| B11 | 19.8 nM | 7.47 nM | 4.27 nM | 59.5 nM |
| B12 | 14.9 nM | 94.8 nM | 51.3 nM | 48.2 nM |
| B13 | 18.3 nM | 16.8 nM | 8.01 nM | 16.1 nM |
| B14 | 11.7 nM | 13.8 nM | 7.47 nM | 22.2 nM |
| B15 | 14.8 nM | 11.7 nM | 9.46 nM | 71.1 nM |
| B16 | 19.3 nM | 41.6 nM | 11.1 nM | 26.3 nM |
